The values that follow are results of earlier work, collected in publication PMC8865373.

Read-outs that look alike come from different tables or passages of the source.

The target of data set [1] is CBP TAZ2 TAZ2 (UniProt P45481).
For data set [2], the target named is CBP TAZ2 TAZ2 (UniProt P45481). This is another data set of the same source.

Chain of CBP TAZ2 TAZ2 (P45481 1764-1855): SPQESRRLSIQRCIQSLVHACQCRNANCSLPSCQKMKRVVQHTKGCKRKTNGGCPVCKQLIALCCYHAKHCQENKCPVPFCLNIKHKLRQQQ
Chain of p53 AD1 AD1 (P04637 13-37): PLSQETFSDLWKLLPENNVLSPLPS
Chain of HPV E7 (P03129 whole entry): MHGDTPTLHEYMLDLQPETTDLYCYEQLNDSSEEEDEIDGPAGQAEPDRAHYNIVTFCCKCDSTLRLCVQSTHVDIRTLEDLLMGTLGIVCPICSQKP

In general, Kd refers to the concentration at which binding is half-saturated. Turning to HPV E7 (from UniProt P03129), in the data set with CBP TAZ2 TAZ2 [1], the Kd is 0.022 µM.

Take p53 AD1 AD1 (from UniProt P04637): in the data set with CBP TAZ2 TAZ2 [2], the Kd was 24 µM.
